Results from patent US20210403538A1.

B1: EBOV-517 (antibody, V domains shown)
VH: EVQLVESGGGLVQPGGSLRLSCGASGFTFNKYWMTWVRQAPGKGLEWVANINQDGSEKYFAESVKGRFTVSRDNAKNSLYLQMNSLRAEDTAVYYCARGASIEVEILYYYHMDVWGKGTLVTVSS
VL: EIVMTQSPATLSVSPGERATLSCRASQSITTHLAWYQQKPGQAPRLLIYDTSTRATGIPARFSGSGSGTEFTLTISNMQSEDFAVYYCQQYHTWPPLTFGGGTKVEIK
B2: EBOV-518 (antibody, V domains shown)
VH: QVTLKESGPTLVKPTQTLTLTCTFSGFSMNSSGMSVTWIRQPPGKALECLALIYWDDDKWYGPSLETRVTITKDASKNQVVLTMTNMDPVDTATYYCAHSGGLVAGAFDYWGQGTLVTVSS
VL: EIVMTQSPDSLTVSLGERATINCRSSQSVLYRVNSKNYLAWYQQKAGQTPKLIINWASTRESGVPDRFSGSGSGTDFTLTISSLQAEDVAVYYCQQYYNSPRTFGQGTKVEIK
B3: EBOV-510 (antibody, V domains shown)
VH: QVQLQESGPGLVKPSQTLSLTCTVSGGSITSGDYYLTWVRQPPGKGLEWIGHIYYSGSTSYNPSLKSRLLMSVDTSKNQFSLRLSSVTAADTAVYYCARESDGDPSRLYFYFAMDVWGQGTLVTVSS
VL: QSALTQPASVSGSPGQSITISCTGTSSDVGGSYFVSWYQHHPGKAPKLMISEVSNRPSGVSNRFSGSKSGNTASLTISGLRTEDEADYYCSSYTSNTTLVFGGETKVTVL
B4: EBOV-508 (antibody, V domains shown)
VH: QVQLVQSGAEVKKPGASVKVSCKASGYTFINYYMHWVRQAPGQGLEWMGTINPSTGRPNYAQKFQGRVTLTRDTSTTTVDMELSSLTSEDTAVYYCVSFQFYFDYWGQGTLVTVSS
VL: DIQMTQSPSAMSPSVGDRVTITCRASQGINNYLAWFQQKPGKVPKRLIYAASNLQSGVPSRFSGSGSGTEFTLTISSLQPEDFATYYCLQHNSYPWTFGQGTKVEIN
B5: EBOV-446 (antibody, V domains shown)
VH: QVQLVQSGAEVKKPGASVKVSCKASGYTFTDYYIYWVRQAPGQGLEWMGWLNPNSGGTDYAQKFQGRVTMTRDTSIRTAYMDLSRLRSDDTAVYYCARGRRHGAYVDWGQGTLVTVSS
VL: DIQLTQSPSFLSASVGDRVTITCRASQGISTYLAWYQQKPGKAPNLLIYDTSTLQSGVPSRFSGSASGTEFTLTISSLQPEDFATYYCQQLNFYLGGLTFGQGTRLEIK
B6: EBOV-524 (antibody, V domains shown)
VH: QVQLVESGGGVVQPGGSLRLSCAASGFKFSTYGMNWVRQVPGQGLEWVSFVRHDGSNKYYSDSVKGRFTIFRDNSNNKLYLQMNNLRAEDTAVYYCAKDVLDCSRADCFIYYYYMDVWGKGTLVTVSS
VL: DIQMTQSPSSVSASPGDRVTITCRASQTISGWLAWYQQKPGKAPKLLIYDVSTLQSGVPSRFSGGGSGTEFTFTISSLQPEDYATYFCQQGNRIPLSFGGGTRVEIK
B7: EBOV-434 (antibody, V domains shown)
VH: QVQLVQSGAEVKKPGASVKVSCKASGYTFTGYYMFWVRQAPGQGLEWMGWINPNSGGTNYTQKFQGRVTMTRDTSISTAYMELSRLKSDDTAVYYCARDSGELLFVGSDVWGQGTLVTVSS
VL: DIQMTQSPSSVSASVGDRVTITCRASLDISYWLAWYQQKPGKAPKLLIYAASNLQSGVPSRFSGSGSGTDFTLTISSLQPEDFATYYCQQANSFPQTFGQGTRLELK
B8: EBOV-511 (antibody, V domains shown)
VH: QLQLQESGPGLVKPSETLSLSCTVSGDSISANNYFWGWIRQPPGKELEWIGSIHNSGSTYYNPSLKSRVTTSVDTSRTQFSLKLHSVTAADAAIYYCARHLAPISGVIFIPSFFDSWGQGTLVTVSS
VL: EIVMTQSPATLSVSPGERATLSCRASQSVSSNLAWYQQRPGQAPRLLIFDASTRATGVPARFSGSGSGTEFTLTISSLQSEDFALYYCQQYNDWPPRLTFGGGTKVEIK
B9: EBOV-507 (antibody, V domains shown)
VH: QVQLVQSGAEVKKPGASVKVSCKASGYTFNNYLINWVRQAPGQGLEWMGWINPHSGGTEYAQQFQGRLTVTRDTSIRTAYMELRGLTFDDSAMYYCWIWFRSETFDFWGQGTLVTVSS
VL: DIQMTQSPSAMSASVGDRVTITCRASQDISNYLAWFQQKPGQGPKRLIFEASILHSGVPSRFSGSGSGTEFTLTISSLQPEDFATYYCLQHNTYLTFGQGTKVEIK
B10: EBOV-514 (antibody, V domains shown)
VH: QVQLQESGPGLVKPSQTLSLTCTVSGASITGGDDFWSWIRQPPGKGLEWIGFIHHSGNAYYRSSLKSRVHFSVDTSKDQFSLTLTSVTAADTAVYYCARDKAQAYGLLYHYHTDVWGKGTLVTVSS
VL: EIVMTQSPATLSVSPGERATLSCRASQSVSSNLAWYQQKPGLAPRLLIYGAFTRATDIPDRFSGSGSGTEFTLTISSLQSEDFAIYYCQYYNDWPPGYTFGQGTKLEIK
B11: EBOV-442 (antibody, V domains shown)
VH: EVQLVESGGGLVKPGGSLRLSCTGSGGTGFTFKYAGMSWVRQAPGKGPEWIGRIKSRIDGGTTDYAAPVKDRFIVSRDDSRNTLYLQMNSLKTEDTAVYYCATGSGKGPSASFGESYYYYDFINVWGKGTTVTVSS
VL: ESVLTQSPGTLSLSPGERATLSCRASQSISRKYLAWYQQKPGQAPRLLIYGSSSRATGIPDRFSGSGSGTDFTLTISRLEPEDFAVYYCHQYESSPWTFGQGTKVEIK
B12: EBOV-451 (antibody, V domains shown)
VH: EVQLVESGGSVVRPGGSLRLSCAASGFKFDEYGMSWVRQAPGKGLEWVSGITWNGGVRTYADSVKGRFTISRDNAKNSVYLQMKSLRGEDTALYYCVSWGERYDAYFDYWGQGTLVTVSS
VL: EIVLTQSPGSLSLSPGERATLSCRASQSVNSRYFAWYQQRPGQAPRLLIYATSTRATGIPDRFSGSGSGTDFTLTISRLEPEDFAVYSCQQYGSSPYTFGQGTKLEIK
B13: EBOV-520 (antibody, V domains shown)
VH: QVQLQESGPGLGKPSETLSLSCTVSGASIRGYFWNWIRQPPGKGLEWIGYIHSTGSTNYNPSLKSRVTISVDTSKNQVSLNVNSVTAADTAVYFCARGAWNVATVYYYYGMDVWGQGTLVTVSS
VL: EIVLTQSPGTLSLSPGERATLSCRASQSVSSSYFAWYQQKPGQAPRLLISGTSTRAPGIPDRFSGSGSGTDFTLTISRLEPEDFAVYFCQQYGNSLYTFGQGTKLEIK

biological target: EBOV GP on recombinant EBOV-eGFP virus (Zaire ebolavirus (EBOV)); experiment: cell-based or functional assay

Binder | Neutralization, IC50 ng/mL
B1 | > 200000 ng/mL
B2 | > 200000 ng/mL
B3 | > 200000 ng/mL
B4 | > 200000 ng/mL
B5 | > 200000 ng/mL
B6 | > 200000 ng/mL
B7 | > 200000 ng/mL
B8 | > 200000 ng/mL
B9 | > 200000 ng/mL
B10 | > 200000 ng/mL
B11 | 467 ng/mL
B12 | > 200000 ng/mL
B13 | 5740 ng/mL
